{"source": "patent US9012606B2", "about": "“In vivo half life increased fusion protein or peptide maintained by sustained in vivo release, and method for increasng in vivo half-life using same” (Alteogen, Inc., priority 2009, dated 2015)", "key": {"[1]": {"test": "Pharmacokinetics of hGH and hGH/alpha-1 antitrypsin fusions (serum ELISA)", "type": "in vivo", "settings": "Sprague-Dawley rats, subcutaneous, 720 μg/kg", "procedure": "An anti-human growth hormone monoclonal antibody (Medix Biochemica, Finland) was diluted to a concentration of 1-5 μg/mL in phosphate buffered saline (PBS) and the dilution was aliquoted in an amount of 100 μL/well onto a 96-well plate (Nunc, Denmark) and incubated at room temperature for 15-18 hrs. After the antibody remaining suspended was removed, PBS containing 1% bovine serum albumin was plated in an amount of 250 μL/well and incubated at room temperature for 2 hours. The plates were washed three times with wash buffer (0.05% Tween 20, PBS) and the solution was aspirated. Samples were diluted in PBS containing 1% bovine serum albumin and added to the 96-well plates before incubation at room temperature for 2 hrs. The 96-well plates were washed five times with wash buffer and 100 μL of the human growth hormone monoclonal antibody-biotin conjugate prepared using sulfo-NHS-biotin (Pierce biotechnology, U.S.A.) was added to each well of the 96-well plates and then incubated at room temperature for 2 hrs. The plates were washed five times with wash buffer and incubated with streptabidin-HRP at room temperature for 30 min. Again, the plates were washed five times with wash buffer and reacted with 100 μL of a mixture of TMB (3,3′,5,5′-tetramethylbenzidine) and hydrogen peroxide per well for 30 min in a dark place. To each well was added 100 μL of 1 M sulfuric acid to terminate the reaction, followed by measuring absorbance at 450 nm on a VersaMax microplate reader (Molecular Device, U.S.A.). Values for each sample were calculated by regression analysis after a standard curve was plotted for a reference material.\nSprague-Dawley rats were used as experimental animals and three of them were administered with human growth hormone while five rats were assigned to each of the fusion-administered groups. The human growth hormone/alpha-1 antitrypsin fusion [T109wt: α1AT/hGH], the human growth hormone/alpha-1 antitrypsin monovariant fusion [T109: α1AT(P357N)/hGH], and the human growth hormone/alpha-1 antitrypsin divariant fusion [T109T: α1AT(P357N, S359T)/hGH], all prepared in Examples 1-3, were subcutaneously injected at a dose of 720 μg/kg into respective groups of Sprague-Dawley rats. The samples were diluted in PBS before injection. Blood samples were taken at 0, 1, 2, 4, 8, 12, 16, 24, 30 and 48 hrs after the injection, and centrifuged to obtain sera. For a control, Scitropin (SciGen, Singapore), a kind of human growth hormone, was subcutaneously injected at a dose of 200 μg/kg. PBS was used as a diluent. Blood samples were taken at 0, 0.33, 1, 2, 5, 8, 12, 18, 24, 30 and 48 hrs after the injection, and centrifuged to obtain sera. Each sample was analyzed in the same manner as the enzyme immunoassay of Test Example 1."}, "[2]": {"tested_on": "rat lymphoma cell line (NB2 cell)", "test": "In vitro activity in NB2 cells (MTS method)", "type": "cell-based", "settings": "48 hrs", "procedure": "The rat lymphoma cell line (NB2 cell) was maintained in RPMI1640 supplemented with 10% HS (Horse serum), 10% FBS, 2-mercaptoethanol and antibiotics at 37° C. under a 5% CO2 condition. For 24 hrs before experiment, NB2 cells were incubated in RPMI 1640 supplemented with 10% HS. Thereafter, the NB2 cells were washed once with 1×DPBS (Dulbecco's Phosphate Buffered Saline), and plated at a density of 2×10^4 cells/100 μL/well in 5% HS-supplemented RPMI 1640 in 96-well plates (Corning, U.S.A.) with final volume of 100 μL. A series of concentrations of the samples were added in an amount of 20 μL to each well of the 96-well plates, followed by incubation at 37° C. for 48 hrs under a 5% CO2 condition. Subsequently, 20 μL of an MTS solution (Promega, U.S.A.) was added to each well of the 96-well plates and allowed to react at 37° C. for 3 hrs under a 5% CO2 condition. The reaction was terminated by adding 20 μL of 10% SDS (sodium dodecyl sulfate) to each well. Absorbance was measured at 490 nm using a VersaMax microplate reader (Molecular Device, U.S.A.)."}, "trypsin": {"target": "T1, trypsin (Bos taurus, UniProt P00760)", "T1 construct": "gene PRSS1", "T1 sequence (P00760 24-246)": "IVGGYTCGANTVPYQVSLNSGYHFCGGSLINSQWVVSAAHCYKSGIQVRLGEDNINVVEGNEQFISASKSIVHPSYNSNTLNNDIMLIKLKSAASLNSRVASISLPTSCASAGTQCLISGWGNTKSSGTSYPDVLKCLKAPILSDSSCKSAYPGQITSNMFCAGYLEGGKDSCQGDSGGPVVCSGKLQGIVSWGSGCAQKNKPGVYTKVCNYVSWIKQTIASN", "test": "Inhibitory activity against trypsin", "type": "biochemical", "settings": "trypsin and fusion 10 nM each, 1 hr room temperature", "procedure": "(§1) The human growth hormone/alpha-1 antitrypsin fusion [T109wt: α1AT/hGH] prepared in Example 1 and the human growth hormone/alpha-1 antitrypsin monovariant fusion [T109: α1AT(P357N)/hGH] prepared in Example 1 were separately mixed with trypsin. Trypsin and the fusions were used at a concentration of 10 nM, respectively. After being incubated at room temperature for 1 hr, the mixture was reacted with 0.2 mM of the substrate N-Benzoyl-Val-Gly-Arg p-nitroanilide hydrochloride (Sigma, U.S.A.), followed by measuring absorbance at 405 nm. Trypsin unit was set to be the concentration of substrate causing a change in absorbance of 0.001 and the enzyme activity was expressed as units/mg trypsin. For comparison, trypsin was used as a control."}, "[3]": {"target": "T2, human neutrophil elastase (Homo sapiens, UniProt P08246)", "T2 sequence (P08246 30-267)": "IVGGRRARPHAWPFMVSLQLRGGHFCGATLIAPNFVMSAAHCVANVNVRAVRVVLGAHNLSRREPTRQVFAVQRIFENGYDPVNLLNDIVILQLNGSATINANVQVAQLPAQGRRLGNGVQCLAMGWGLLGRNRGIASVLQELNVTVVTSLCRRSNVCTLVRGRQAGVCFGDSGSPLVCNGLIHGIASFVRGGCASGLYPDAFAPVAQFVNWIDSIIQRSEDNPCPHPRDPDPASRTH", "test": "Inhibitory activity against human neutrophil elastase", "type": "biochemical", "settings": "elastase and fusion 40 nM each, 1 hr room temperature", "procedure": "as §1, with “with human neutrophil elastase. The elastase” for “with trypsin. Trypsin”, “of 40” for “of 10”, “with 1” for “with 0.2”, “substrate MeOSuc-AAPV-pNA (Santa Cruz Biotechnology, Inc.,” for “substrate N-Benzoyl-Val-Gly-Arg p-nitroanilide hydrochloride (Sigma,”, “nm. Human neutrophil elastase” for “nm. Trypsin”, “units/mg elastase.” for “units/mg trypsin. For comparison, trypsin was used as a control.”"}}, "note": "pEC50: −log10 of the molar value.", "data": [{"substance": "human growth hormone/alpha-1 antitrypsin fusion [T109wt]", "values": [{"measurement": "serum half-life (t1/2)", "setting": "[1]", "value": 5.3, "unit": "h"}, {"measurement": "time to peak serum concentration (Tmax)", "setting": "[1]", "value": 8, "unit": "h"}, {"measurement": "pEC50", "setting": "[2]", "value": 9.67}, {"measurement": "Ka (association equilibrium constant) with trypsin", "setting": "trypsin", "value": "about 7.5×10^8 M^−1"}, {"measurement": "inhibition of human neutrophil elastase", "setting": "[3]", "value": "~100", "unit": "%"}]}]}
